Reference: paper PMC3518043

Molecular target: Histone H3 N-terminal peptide trimethylated at lysine-4 (celluspot peptide #1)
Assay: peptide or protein array

Chain of GST-tagged CHD5 PHD2 finger (413-468) (Q8TDI0 413-468): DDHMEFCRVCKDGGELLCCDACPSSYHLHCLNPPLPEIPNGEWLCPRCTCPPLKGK
Chain of GST-tagged CHD5 PHD1 finger (338-393) (Q8TDI0 338-393): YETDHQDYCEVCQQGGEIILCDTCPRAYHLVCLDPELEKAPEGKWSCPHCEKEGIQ

Substance	decrease in signal against unmodified H3
GST-tagged CHD5 PHD1 finger (338-393) (from UniProt Q8TDI0 338-393) (domain or fragment)	> 90%
GST-tagged CHD5 PHD2 finger (413-468) (from UniProt Q8TDI0 413-468) (domain or fragment)	> 90%
